Among the data in article PMC9352680, “A comprehensive thermodynamic model for RNA binding by the Saccharomyces cerevisiae Pumilio protein PUF4” are Kd values, retold here.

Sequences and labels used below:
T1: PUF4 RNA-binding domain (Saccharomyces cerevisiae, UniProt P25339 537-888)
T1 sequence: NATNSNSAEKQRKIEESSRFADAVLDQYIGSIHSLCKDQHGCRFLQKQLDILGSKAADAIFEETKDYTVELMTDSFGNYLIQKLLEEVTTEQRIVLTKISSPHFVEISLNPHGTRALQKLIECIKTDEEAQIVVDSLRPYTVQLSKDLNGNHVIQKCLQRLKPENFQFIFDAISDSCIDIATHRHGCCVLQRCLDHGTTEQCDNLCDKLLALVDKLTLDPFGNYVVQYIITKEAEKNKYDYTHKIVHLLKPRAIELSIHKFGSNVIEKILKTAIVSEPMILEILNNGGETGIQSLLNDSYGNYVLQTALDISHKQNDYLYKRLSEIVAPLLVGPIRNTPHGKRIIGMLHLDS

In this series the target is T1, PUF4 RNA-binding domain. As to the kind of experiment: Mg; RNA-MaP; 20 mM Na-HEPES pH 7.4, 30 mM KOAc, 0.75 mM MgCl2, 0.1% Tween-20, 5% glycerol, 0.1 mg/mL BSA, 2 mM DTT; 25 C; 0.0125-409.6 nM protein. The following applies: tags: N-His6-TEV cleaved; C-SNAP kept, Cy3B-labelled; label: tethered on chip by stalled RNA polymerase.
With UCUCUUGCUAUAUAUUACAUCUCUU (ssRNA) [Id_ii_S1_P4E.3_K4.2_C4.2_[C-2G]_[T-1C]_H4.2_A4.1_F4.1_T4.2_[G10C]_[T11A]], the dissociation constant (Kd) (in general, the equilibrium constant for the complex coming apart) was found to be 44.4 nM.

UCUCUUCUUGUAUAUUAUUUCUCUU (ssRNA) [Id_ii_S1_P4E.2_K4.1_C4.2_H4.1_A4.1_F4.1_T4.2_[G10T]]: the equilibrium dissociation constant (Kd) came out at 0.541 nM.

Turning to UCUCUUGCUAUAUAUUACGUCUCUU (ssRNA) [Id_ii_S1_P4E.3_K4.2_C4.2_[C-2G]_[T-1C]_H4.2_A4.1_F4.1_T4.2_[G10C]_[T11G]], the dissociation constant Kd turned out to be 56.3 nM. Against the preceding molecule, the Kd is about 100-fold higher.

With UCUCUUUGUCAAUUAUCUCUU (ssRNA) [Ib_S1_P4E.1_K4.1_C4.1_H4.1_[A4C]_A4.1_[T5A]_F4.1_T4.1], the Kd was found to be 134 nM.

The molecule UCUCUUCAUGUAUAUUAGCUCUCUU (ssRNA) [Id_ii_S1_P4E.2_K4.1_C4.2_[T-1A]_H4.1_A4.1_F4.1_T4.2_[T11C]] came in with a Kd of 0.425 nM. This Kd lies about 320-fold lower than the previous one.

With UCUCUUCUUGUAUAUUAAUUCUCUU (ssRNA) [Id_ii_S1_P4E.2_K4.1_C4.2_H4.1_A4.1_F4.1_T4.2_[G10A]], the dissociation constant (Kd) was determined as 0.76 nM.

Regarding UCUCUUCUUGUAUAUUAGCUCUCUU (ssRNA) [Id_ii_S1_P4E.2_K4.1_C4.2_H4.1_A4.1_F4.1_T4.2_[T11C]], the affinity, expressed as Kd, was 0.287 nM.

Take UCUCUUGCUAUAUAUUAUAUCUCUU (ssRNA) [Id_ii_S1_P4E.3_K4.2_C4.2_[C-2G]_[T-1C]_H4.2_A4.1_F4.1_T4.2_[G10T]_[T11A]]: the Kd came to 57.3 nM.

Molecule UCUCUUCAUGUAUAUUAGUUCUCUU (ssRNA) [Id_ii_S1_P4E.2_K4.1_C4.2_[T-1A]_H4.1_A4.1_F4.1_T4.2] displayed an equilibrium dissociation constant (Kd) of 0.326 nM.

Molecule UCUCUUGCUAUAUAUUACUUCUCUU (ssRNA) [Id_ii_S1_P4E.3_K4.2_C4.2_[C-2G]_[T-1C]_H4.2_A4.1_F4.1_T4.2_[G10C]] showed an equilibrium dissociation constant (Kd) of 30.6 nM.

UCUCUUGCUAUAUAUUACCUCUCUU (ssRNA) [Id_ii_S1_P4E.3_K4.2_C4.2_[C-2G]_[T-1C]_H4.2_A4.1_F4.1_T4.2_[G10C]_[T11C]] returned a dissociation constant (Kd) of 61.4 nM. Compared with the last molecule, the Kd is about 2-fold higher.

UCUCUUCUUGUAUAUUAAAUCUCUU (ssRNA) [Id_ii_S1_P4E.2_K4.1_C4.2_H4.1_A4.1_F4.1_T4.2_[G10A]_[T11A]] displayed a Kd of 0.971 nM.

Turning to UCUCUUGCUAUAUAUUAUCUCUCUU (ssRNA) [Id_ii_S1_P4E.3_K4.2_C4.2_[C-2G]_[T-1C]_H4.2_A4.1_F4.1_T4.2_[G10T]_[T11C]], the Kd was found to be 38.5 nM.

Turning to UCUCUUCUUGUAUAUUAGUUCUCUU (ssRNA) [If_S1_P4E.2_K4.1_C4.2_H4.1_A4.1_F4.1_T4.2], the dissociation constant Kd turned out to be 0.286 nM.

Turning to UCUCUUCUUGUAUAUUAUAUCUCUU (ssRNA) [Ie_S1_P3E.2_K3.1_C3.2_H3.1_A3.1_[+6T]_F3.1_T3.2], binding was put at a Kd of 0.724 nM.

For the molecule UCUCUUCUUGUAUAUUAACUCUCUU (ssRNA) [Id_ii_S1_P4E.2_K4.1_C4.2_H4.1_A4.1_F4.1_T4.2_[G10A]_[T11C]], the Kd amounted to 0.862 nM. This Kd and that of the molecule before are within 1.5-fold of each other.

UCUCUUCUUGUAUAUUACUUCUCUU (ssRNA) [Id_ii_S1_P4E.2_K4.1_C4.2_H4.1_A4.1_F4.1_T4.2_[G10C]] came in with a Kd of 0.702 nM.

In turn, UCUCUUCUUGUAUAUUAUGUCUCUU (ssRNA) [Id_ii_S1_P4E.2_K4.1_C4.2_H4.1_A4.1_F4.1_T4.2_[G10T]_[T11G]] registered a Kd of 0.808 nM.

In the case of UCUCUUCUUGUAUAUUACCUCUCUU (ssRNA) [Id_ii_S1_P4E.2_K4.1_C4.2_H4.1_A4.1_F4.1_T4.2_[G10C]_[T11C]], the Kd was determined as 0.733 nM.

UCUCUUUGUCCAUUAUCUCUU (ssRNA) [Ib_S1_P4E.1_K4.1_C4.1_H4.1_[A4C]_A4.1_[T5C]_F4.1_T4.1] registered a Kd of 20.5 nM.

UCUCUUGCUAUAUAUUAACUCUCUU (ssRNA) [Id_ii_S1_P4E.3_K4.2_C4.2_[C-2G]_[T-1C]_H4.2_A4.1_F4.1_T4.2_[G10A]_[T11C]] came in with a dissociation constant Kd of 55 nM.

In turn, UCUCUUCAUGUAUAUUAGGUCUCUU (ssRNA) [Id_ii_S1_P4E.2_K4.1_C4.2_[T-1A]_H4.1_A4.1_F4.1_T4.2_[T11G]] yielded a Kd of 1.02 nM.

Regarding UCUCUUGCUAUAUAUUAUGUCUCUU (ssRNA) [Id_ii_S1_P4E.3_K4.2_C4.2_[C-2G]_[T-1C]_H4.2_A4.1_F4.1_T4.2_[G10T]_[T11G]], the affinity, expressed as Kd, was 42 nM.

UCUCUUUGUCGAUUAUCUCUU (ssRNA) [Ib_S1_P4E.1_K4.1_C4.1_H4.1_[A4C]_A4.1_[T5G]_F4.1_T4.1] displayed a dissociation constant (Kd) of 336 nM.

UCUCUUGCUAUAUAUUAUUUCUCUU (ssRNA) [Id_ii_S1_P4E.3_K4.2_C4.2_[C-2G]_[T-1C]_H4.2_A4.1_F4.1_T4.2_[G10T]] came in with an equilibrium dissociation constant (Kd) of 29.8 nM.
